± gives the uncertainty stated by the source.
assay: amyloid nucleation score (Sup35N fusion, yeast selection) (log enrichment); library NNK2; higher = more nucleation; inactive = no reads after selection
How it was run: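 Nucleation score: DiMSum log enrichment of output over input reads, centred on the mode score of non-aggregating sequences. Only sequences with at least 100 input reads were kept. Reads came from Illumina sequencing of plasmid inserts before and after 7 days of growth at 30°C without adenine and uracil, in psi-negative yeast expressing Sup35N fused to peptides of 20 random codons after 24 hours of induction with 100 μM copper sulfate.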

With NFAGLLY the amyloid nucleation score was “inactive”.
For MSLCGYNYI, the amyloid nucleation score was “inactive”.
In the case of KWFGSRFYYLYKPPLFSHLA, the amyloid nucleation score is reported as “inactive”.
With FLSRIYESLSTVI the amyloid nucleation score was “inactive”.
For CMTGNYYQP, the amyloid nucleation score was “inactive”.
With VVVHSTLLGFWIIF the amyloid nucleation score was “inactive”.
With LMWENFSRRLLYWLLCGS the amyloid nucleation score was “inactive”.
With VLRSTLDD the amyloid nucleation score was “inactive”.
For RQMDHYQRGFLIIYCQLTDK, the amyloid nucleation score was “inactive”.
In the case of QSAFSKF, the amyloid nucleation score is reported as “inactive”.

VYYLCVWF and KNIVVTSPVLMNST are within error of each other in amyloid nucleation score: -1.18 ± 0.41 for the first, -0.179 ± 0.63 for the second.

Compared with TTMSTGARGLSRCLSVVFRR, IVLCWLEGG is lower in amyloid nucleation score: 3.08 ± 0.12 for the first, 0.516 ± 0.31 for the second.

Compared with TQLTDASSELLPPGSRLQCS, WAYAVNPTCYNFVGTGGSCS is higher in amyloid nucleation score: 1.03 ± 0.36 for the first, 2.44 ± 0.11 for the second.

First: NTCRSYNRNVIIRARPRPGL
Second: KSESLLPLNWAHARALIHRA
The amyloid nucleation score of the first is higher: 5.14 ± 0.069 for the first, 1.1 ± 0.36 for the second.

Going from VCIVDLVS to AVPNLGSVPYVVDLMI, the amyloid nucleation score rises from -0.203 ± 0.65 to 0.907 ± 0.29.

First: VAVTLNFLIGVIGCRGILMG
Second: CLRSCRPYSQTIINVA
The amyloid nucleation score of the first is lower: 5.482 ± 0.043 for the first, 6.16 ± 0.062 for the second.

Compared with IPYLNFDLYWLPVI, TVFFIVPLCSLLDKVNSLGA is higher in amyloid nucleation score: -0.792 ± 0.48 for the first, 3.34 ± 0.086 for the second.

Going from PIRPVLWVQFVKTQYGPMIP to RYWWRVRIYFVCCVSSLDWV, the amyloid nucleation score rises from 4.68 ± 0.098 to 7.09 ± 0.077.

Going from YILRSANLM to SELLRTLGALSFYMYSFIKH, the amyloid nucleation score falls from -0.406 ± 0.3 to -1.98 ± 0.54.

Compared with FCLGRMLARPRRTCYTDENM, TTTQKGCGVYVAREVSWGLG is higher in amyloid nucleation score: -0.126 ± 0.49 for the first, 2.56 ± 0.093 for the second.

VHMVPHCATW and TWFCVGKVASSMWVYQGVNF are within error of each other in amyloid nucleation score: 1.01 ± 0.38 for the first, 0.662 ± 0.52 for the second.

Going from ARNYGRTWHTSEESWYFGEV to YARGNFKSLCCPMV, the amyloid nucleation score falls from 5.8 ± 0.081 to -0.927 ± 0.78.

HEYVAALGWMAEGLSKFLKR and VYEVNGLSAGRMMSICNRRN are within error of each other in amyloid nucleation score: 0.579 ± 0.8 for the first, -0.467 ± 0.44 for the second.

First: MWVDQMVFKRPGYCRSGMYL
Second: RSRSGVLVERFMAVSWDAWH
The amyloid nucleation score of the first is lower: 4.78 ± 0.049 for the first, 5.691 ± 0.051 for the second.

First: VTNCNPDRW
Second: VTNVSQISNSRNVMERSIMF
The amyloid nucleation score of the first is higher: -0.149 ± 0.63 for the first, -1.2 ± 0.41 for the second.

First: MMVRN
Second: DVLIRKWIIWDASNLQWMAI
The amyloid nucleation score of the first is higher: 1.22 ± 0.57 for the first, 0.144 ± 0.36 for the second.

Going from PIYLIC to AMSFGCSAWYTSYRDMFCRG, the amyloid nucleation score rises from -0.686 ± 0.28 to 3.17 ± 0.15.

Compared with YPRALIHVWKKSLVHTSRCR, NSFVYGCKCYALTFLRTFLV is lower in amyloid nucleation score: 7.14 ± 0.079 for the first, -1.48 ± 0.62 for the second.

YCGGFGGFWVEYWWDKYPTC and YISRILYHNGKSDRDGQRDY are within error of each other in amyloid nucleation score: -0.171 ± 0.23 for the first, -0.119 ± 0.65 for the second.

First: ERHNAELRHPAQYLEFTTLG
Second: YGGDVSP
The amyloid nucleation score of the first is higher: 1.38 ± 0.37 for the first, 0.1 ± 0.4 for the second.

Going from CKCSAAIDVRDYVS to RVNCYYSFRS, the amyloid nucleation score rises from -0.02 ± 1.1 to 6.026 ± 0.038.

First: NSPPVLLHMWRFRRRDTRRY
Second: DGCDNYDSRESKTLFMRMMW
The amyloid nucleation score of the first is lower: -0.551 ± 0.61 for the first, 1.11 ± 0.43 for the second.

Compared with NCFNLEKGQMCPDWNGSSYT, IIRDPTACTFLVCVSYME is higher in amyloid nucleation score: -0.667 ± 0.39 for the first, 6.27 ± 0.059 for the second.

Going from MPLCECHNKGHVDFCDTRTA to FIMMDRAGSMIYSKGTRNIR, the amyloid nucleation score rises from -0.072 ± 1.1 to 3.05 ± 0.11.

HSKTYLKGRLCNSLVWSYES and YLRRGNKLCESTLVVTCTMV are within error of each other in amyloid nucleation score: 0.712 ± 0.47 for the first, -0.087 ± 1 for the second.

Compared with YWLNMWFYRSSASYRSMDMD, HCLVIFNEIYRL is higher in amyloid nucleation score: -0.713 ± 0.55 for the first, 7.137 ± 0.071 for the second.

VDSPKREVNMCVWLLRRKQR and DAAHSFYLSSGNESFVLELT are within error of each other in amyloid nucleation score: 0.21 ± 0.34 for the first, -0.327 ± 0.63 for the second.

SIRRCPVKFINKRLVVYLKV and LGNRLSKIAVGTSFKLFKK are within error of each other in amyloid nucleation score: -0.88 ± 0.55 for the first, 0.138 ± 1.1 for the second.

WFLHRGSIGYQTAFFCSYLP and TNHFN are within error of each other in amyloid nucleation score: -0.208 ± 1.1 for the first, -1.08 ± 0.61 for the second.

First: YCGVSLFSINTYSY
Second: VCGFRAIVVVDPYWQPGKMA
The amyloid nucleation score of the first is higher: 6.94 ± 0.05 for the first, 2.42 ± 0.13 for the second.

LIEAESSDRGPYVPNQCGWN and TLFRSELFAV are within error of each other in amyloid nucleation score: 1.11 ± 0.68 for the first, 0.495 ± 0.56 for the second.

First: CPTNIRP
Second: LLSMYRFFNTLKSC
The amyloid nucleation score of the first is lower: -1.18 ± 0.63 for the first, -0.087 ± 0.33 for the second.

TWNSANFFIKLRQSVFYLSR and YSSCLCLQCTRMQTPMVQFL are within error of each other in amyloid nucleation score: -1.46 ± 1.1 for the first, 0.032 ± 0.53 for the second.

WAVSATWWNFLSVYRKLSDL and SLESSLAYVGSLGIAGGSAQ are within error of each other in amyloid nucleation score: -0.095 ± 1.1 for the first, 1.11 ± 0.23 for the second.

VELSHFCTGRNSYSRRWISM and RKVLWKSDTSSLLNEWSIAH are within error of each other in amyloid nucleation score: 0.422 ± 0.65 for the first, -0.178 ± 0.49 for the second.

Compared with RCKYWNTKCTTIYRGRVSYL, GIVRGYMLSHLFV is higher in amyloid nucleation score: -0.733 ± 0.29 for the first, 0.262 ± 0.25 for the second.

CGMKTRQYCTMSRYVGRYVR and LFSILAGS are within error of each other in amyloid nucleation score: 0.231 ± 0.24 for the first, 0.575 ± 0.46 for the second.

Going from GLTLMWALFGSVYGLRSGMG to VTVLTGVG, the amyloid nucleation score rises from 0.89 ± 0.28 to 4.79 ± 0.058.

Compared with SLLHPFLTVGVCMCRYGVNI, IDVLTQLNSFRMNFYVSANI is lower in amyloid nucleation score: 1.81 ± 0.083 for the first, -0.868 ± 1.1 for the second.

Going from FPCRGLGGVLW to VCSPIG, the amyloid nucleation score falls from 1.97 ± 0.14 to 0.063 ± 0.45.

First: KTQKLLGRAWRNYGYGCCVR
Second: ASGCLNLVCQNVCTSRSTNV
The amyloid nucleation score of the first is lower: -0.487 ± 1.1 for the first, 8.954 ± 0.067 for the second.

RFRLWIVCG and MSRSVVESQMVLSDDFWHQG are within error of each other in amyloid nucleation score: -0.253 ± 0.26 for the first, -0.41 ± 0.22 for the second.

IYWMIIFWGFE and IEGYYGASRVRGMSMGLLWV are within error of each other in amyloid nucleation score: -0.089 ± 1.1 for the first, -0.17 ± 0.79 for the second.

First: RGRHGASMELESVDKRTVSR
Second: IGISWLATWPIEFTRLSRMV
The amyloid nucleation score of the first is lower: 0.656 ± 0.34 for the first, 1.53 ± 0.52 for the second.

Compared with LRLFYHVR, CQFSTQMMVICSFTTLTSVL is higher in amyloid nucleation score: -0.641 ± 0.33 for the first, 1.98 ± 0.13 for the second.

SYCLDDMRPWLHESTLSLSM and STEERRWNN are within error of each other in amyloid nucleation score: -0.033 ± 0.3 for the first, -0.217 ± 0.79 for the second.

LQCGRIV and IAYNMRNGH are within error of each other in amyloid nucleation score: -0.204 ± 0.79 for the first, 0.949 ± 0.74 for the second.

First: VITEADRLFHWIWKESLGEE
Second: MVDTTRSTCISNSISWCAID
The amyloid nucleation score of the first is lower: 4.858 ± 0.035 for the first, 5.28 ± 0.062 for the second.

Going from SPACLNS to SDLLFVLASLSCLQWNKDIA, the amyloid nucleation score falls from 4.58 ± 0.053 to -0.457 ± 0.25.

First: RCLTELTNETNYVGAG
Second: SCDIRRSLVSRAQICVCIVM
The amyloid nucleation score of the first is lower: 0.405 ± 0.3 for the first, 7.534 ± 0.071 for the second.

Compared with KFWYYIFCGLCMCYDFSKRR, ASDVSRVGVGRKMIFSFVRL is lower in amyloid nucleation score: 6.42 ± 0.084 for the first, -0.031 ± 1 for the second.

First: TFNLVILGVGHSHHFQRNNH
Second: GCGVL
The amyloid nucleation score of the first is higher: 8.269 ± 0.046 for the first, -0.91 ± 0.55 for the second.

First: VYFSCFSLWSSYDVIGRWSC
Second: GYQRNYSFAVSMEARSVVPG
The amyloid nucleation score of the first is higher: 7.446 ± 0.036 for the first, 4.12 ± 0.058 for the second.

DLVMVSVSADVHSSNS and CMLEIVLLEDFQG are within error of each other in amyloid nucleation score: 0.163 ± 0.5 for the first, -0.632 ± 0.32 for the second.

RPTAIPAHLIVFSEFCEAEW and DTGNPVVWKRTVNCLSQVLW are within error of each other in amyloid nucleation score: 0.739 ± 0.45 for the first, 0.368 ± 0.62 for the second.

Compared with TCYWRGLAGYR, VGFLYACYFRGTAVNETGYT is lower in amyloid nucleation score: 3.28 ± 0.14 for the first, 1.15 ± 0.13 for the second.

YMLNHVIQNMSSWCEVT and KRKLSKYFLRLKLKCFWVM are within error of each other in amyloid nucleation score: -0.103 ± 0.34 for the first, -0.753 ± 0.48 for the second.

NHLGLTDCTFQGLDSG and IAFRTSLYRD are within error of each other in amyloid nucleation score: -1.09 ± 1.1 for the first, -1.39 ± 0.48 for the second.

Compared with PISTSLADR, IWRFRGRRNRAWKF is lower in amyloid nucleation score: 1.21 ± 0.42 for the first, -0.333 ± 0.62 for the second.
